Experimental data published in patent US20060067886A1, “Gastrin receptor-avid peptide conjugates” (priority 1997, published 2006).

Assay: Biodistribution of radiometal-DOTA-BBN conjugates in CF1 normal mice
Details: 1 hour post-injection; for tissue uptake at 1 h / tissue uptake dose at 1 h / dose excreted at 1 h: CF-1, mouse, in vivo, iv, total radioactivity; for tissue uptake at 1 h: Avg % ID/gm; for tissue uptake dose at 1 h / dose excreted at 1 h: Avg % ID; for dose excreted at 1 h: Urine

| SMILES | Avg % ID, Heart [% ID] | Avg % ID, Lung [% ID] | Avg % ID, Muscle [% ID] | Avg % ID/gm, Blood [% ID/gm] | Avg % ID/gm, Heart [% ID/gm] | Avg % ID/gm, Kidney [% ID/gm] | Avg % ID/gm, Lung [% ID/gm] | Avg % ID/gm, Muscle [% ID/gm] | Avg % ID, L. Intestine [% ID] | Avg % ID, Pancreas [% ID] | Avg % ID, S. Intestine [% ID] | Avg % ID, Spleen [% ID] | Avg % ID/gm, L. Intestine [% ID/gm] | Avg % ID/gm, Pancreas [% ID/gm] | Avg % ID/gm, S. Intestine [% ID/gm] | Avg % ID/gm, Spleen [% ID/gm] | further results |
| --- | --- | --- | --- | --- | --- | --- | --- | --- | --- | --- | --- | --- | --- | --- | --- | --- | --- |
| CSCC[C@H](NC(=O)[C@H](CC(C)C)NC(=O)[C@H](Cc1cnc[nH]1)NC(=O)CNC(=O)[C@@H](NC(=O)[C@H](C)NC(=O)[C@H](Cc1c[nH]c2ccccc12)NC(=O)[C@H](CCC(N)=O)NC(=O)CCCCCCCNC(=O)CN1CCN(CC(=O)O)CCN(CC(=O)O)CCN(CC(=O)O)CC1)C(C)C)C(N)=O [149Pm-DOTA-8-Aoc-BBN[7-14]NH2] | – | – | – | – | – | – | – | – | – | – | – | – | – | – | – | – | tissue uptake at 1 h (Stomach): 1.16 ± 0.59 %ID/g |
| CSCC[C@H](NC(=O)[C@H](CC(C)C)NC(=O)[C@H](Cc1cnc[nH]1)NC(=O)CNC(=O)[C@@H](NC(=O)[C@H](C)NC(=O)[C@H](Cc1c[nH]c2ccccc12)NC(=O)[C@H](CCC(N)=O)NC(=O)CN1CCN(CC(=O)O)CCN(CC(=O)O)CCN(CC(=O)O)CC1)C(C)C)C(N)=O [111In-DOTA-0-BBN[7-14]NH2, metal not drawn] | – | – | – | – | – | – | – | – | – | – | – | – | – | – | – | – | tissue uptake dose at 1 h (Blood): 0.22 ± 0.07 %ID; tissue uptake dose at 1 h (Heart): 0.01 %ID; tissue uptake dose at 1 h (Kidney): 0.57 ± 0.02 %ID; tissue uptake dose at 1 h (Liver): 0.17 ± 0.02 %ID; tissue uptake dose at 1 h (Lung): 0.03 %ID; tissue uptake dose at 1 h (Muscle): 0.01 %ID; tissue uptake dose at 1 h (Pancreas): 0.07 ± 0.01 %ID; tissue uptake dose at 1 h (Spleen): 0.01 %ID; dose excreted at 1 h: 96.95 ± 0.37%; tissue uptake at 1 h (Heart): 0.05 ± 0.02 %ID/g; tissue uptake at 1 h (Kidney): 1.24 ± 0.14 %ID/g; tissue uptake at 1 h (Liver): 0.09 ± 0.01 %ID/g; tissue uptake at 1 h (Lung): 0.13 ± 0.03 %ID/g; tissue uptake at 1 h (Pancreas): 0.2 ± 0.04 %ID/g; tissue uptake at 1 h (Spleen): 0.08 ± 0.02 %ID/g |
| CSCC[C@H](NC(=O)[C@H](CC(C)C)NC(=O)[C@H](Cc1c[nH]cn1)NC(=O)CNC(=O)[C@@H](NC(=O)[C@H](C)NC(=O)[C@H](Cc1c[nH]c2ccccc12)NC(=O)[C@H](CCC(N)=O)NC(=O)CCCCCCCCCCNC(=O)CN1CCN(CC(=O)O)CCN(CC(=O)O)CCN(CC(=O)O)CC1)C(C)C)C(N)=O [111In-DOTA-11-Aun-BBN[7-14]NH2] [metal not drawn] | 0.02 ± 0.01 | 0.08 ± 0.01 | 0.02 ± 0.01 | 0.34 ± 0.08 | 0.13 ± 0.04 | 2.06 ± 0.31 | 0.26 ± 0.05 | 0.09 ± 0.03 | – | – | – | – | – | – | – | – | – |
| CSCC[C@H](NC(=O)[C@H](CC(C)C)NC(=O)[C@H](Cc1c[nH]cn1)NC(=O)CNC(=O)[C@@H](NC(=O)[C@H](C)NC(=O)[C@H](Cc1c[nH]c2ccccc12)NC(=O)[C@H](CCC(N)=O)NC(=O)CCCCCCCCCCNC(=O)CN1CCN(CC(=O)O)CCN(CC(=O)O)CCN(CC(=O)O)CC1)C(C)C)C(N)=O [177Lu-DOTA-11-Aun-BBN[7-14]NH2] [metal not drawn] | 0.19 ± 0.29 | 0.17 ± 0.22 | 0.11 ± 0.18 | 0.78 ± 1.10 | 1.56 ± 2.40 | 4.97 ± 0.61 | 0.73 ± 0.81 | 0.75 ± 1.12 | 5.03 ± 0.46 | 6.89 ± 1.20 | 17.10 ± 3.60 | 0.24 ± 0.24 | 6.31 ± 0.86 | 35.48 ± 2.39 | 12.58 ± 1.73 | 1.78 ± 1.87 | Avg % ID, Blood: 0.47 ± 0.54 % ID; Avg % ID, Carcass: 6.69 ± 2.48 % ID; Avg % ID, Kidney: 1.76 ± 0.25 % ID; Avg % ID, Liver: 2.26 ± 0.46 % ID; Avg % ID, Stomach: 0.64 ± 0.35 % ID; Avg % ID/gm, Liver: 1.65 ± 0.29 % ID/gm; Avg % ID/gm, Stomach: 1.82 ± 1.12 % ID/gm |
| CSCC[C@H](NC(=O)[C@H](CC(C)C)NC(=O)[C@H](Cc1cnc[nH]1)NC(=O)CNC(=O)[C@@H](NC(=O)[C@H](C)NC(=O)[C@H](Cc1c[nH]c2ccccc12)NC(=O)[C@H](CCC(N)=O)NC(=O)CCNC(=O)CN1CCN(CC(=O)O)CCN(CC(=O)O)CCN(CC(=O)O)CC1)C(C)C)C(N)=O [149Pm-DOTA-β-Ala-BBN[7-14]NH2] | 0.02 ± 0.02 | 0.06 ± 0.04 | 0.00 ± 0.01 | 0.21 ± 0.22 | 0.17 ± 0.24 | 2.05 ± 1.63 | 0.34 ± 0.30 | 0.04 ± 0.10 | 0.31 ± 0.06 | 0.46 ± 0.23 | 0.95 ± 0.19 | 0.02 ± 0.04 | 0.42 ± 0.08 | 2.40 ± 1.33 | 0.63 ± 0.20 | 0.16 ± 0.31 | Avg % ID, Blood: 0.30 ± 0.32 % ID; Avg % ID, Carcass: 1.64 ± 0.38 % ID; Avg % ID, Kidney: 0.61 ± 0.41 % ID; Avg % ID, Liver: 0.23 ± 0.07 % ID; Avg % ID, Stomach: 0.10 ± 0.03 % ID; Avg % ID/gm, Liver: 0.15 ± 0.05 % ID/gm; Avg % ID/gm, Stomach: 0.19 ± 0.11 % ID/gm |
| CSCC[C@H](NC(=O)[C@H](CC(C)C)NC(=O)[C@H](Cc1cnc[nH]1)NC(=O)CNC(=O)[C@@H](NC(=O)[C@H](C)NC(=O)[C@H](Cc1c[nH]c2ccccc12)NC(=O)[C@H](CCC(N)=O)NC(=O)CCNC(=O)CN1CCN(CC(=O)O)CCN(CC(=O)O)CCN(CC(=O)O)CC1)C(C)C)C(N)=O [111In-DOTA-β-Ala-BBN[7-14]NH2] [metal not drawn] | 0.01 ± 0.01 | – | 0.01 ± 0.01 | – | 0.06 ± 0.04 | – | – | 0.03 ± 0.02 | 0.90 ± 0.57 | 1.84 ± 0.35 | 1.57 ± 0.65 | 0.05 ± 0.00 | 1.10 ± 0.78 | 4.92 ± 0.37 | 1.01 ± 0.37 | 0.37 ± 0.06 | – |
| CSCC[C@H](NC(=O)[C@H](CC(C)C)NC(=O)[C@H](Cc1c[nH]cn1)NC(=O)CNC(=O)[C@@H](NC(=O)[C@H](C)NC(=O)[C@H](Cc1c[nH]c2ccccc12)NC(=O)[C@H](CCC(N)=O)NC(=O)CCCCNC(=O)CN1CCN(CC(=O)O)CCN(CC(=O)O)CCN(CC(=O)O)CC1)C(C)C)C(N)=O [111In-DOTA-5-Ava-BBN[7-14]NH2, metal not drawn] | – | – | – | – | – | – | – | – | – | – | – | – | – | – | – | – | tissue uptake dose at 1 h (Blood): 0.45 ± 0.14 %ID; tissue uptake dose at 1 h (Kidney): 0.75 ± 0.14 %ID; tissue uptake dose at 1 h (L. Intestine): 2.74 ± 0.8 %ID; tissue uptake dose at 1 h (Pancreas): 5.57 ± 0.99 %ID; dose excreted at 1 h: 81.3 ± 1.32%; tissue uptake at 1 h (Blood): 0.2 ± 0.07 %ID/g; tissue uptake at 1 h (Kidney): 1.84 ± 0.44 %ID/g; tissue uptake at 1 h (L. Intestine): 3.07 ± 0.86 %ID/g; tissue uptake at 1 h (Pancreas): 15.8 ± 2.54 %ID/g |
